{
  "source": "patent US8592178B2",
  "about": "“Process for the preparation of testosterone” (F.I.S. Fabbrica Italiana Sintetici S.p.A., priority 2009, dated 2013)",
  "molecules": {"B1": {"name": "09/10/09: Preparation of the purified recombinant enzyme dated 09/10/09; induction 26 °C, 19 h (protein, UniProt P70694 1-323, looked up)", "Estradiol 17 …": "MDSKQQTVRLSDGHFIPILGFGTYAPQEVPKSKATEATKIAIDAGFRHIDSASMYQNEKEVGLAIRSKIADGTVKREDIFYTSKVWCTFHRPELVRVCLEQSLKQLQLDYVDLYLIHFPMAMKPGENYLPKDENGKLIYDAVDICDTWEAMEKCKDAGLAKSIGVSNFNRRQLEKILKKPGLKYKPVCNQVECHPYLNQGKLLDFCRSKDIVLVAYSALGSHREKQWVDQSSPVLLDNPVLGSMAKKYNRTPALIALRYQLQRGVVVLAKSFSEKRIKENMQVFEFQLTSEDMKVLDDLNKNIRYISGSSFKDHPDFPFWDEY", "modifications": "N-terminal His-tag", "notes": "Preparation of the purified recombinant enzyme dated 09/10/09; induction 26 °C, 19 h"}, "B2": {"name": "13/06/09: Preparation of the purified recombinant enzyme dated 13/06/09; induction 39 °C, 20 h (protein, UniProt P70694 1-323, looked up)", "Estradiol 17 …": "MDSKQQTVRLSDGHFIPILGFGTYAPQEVPKSKATEATKIAIDAGFRHIDSASMYQNEKEVGLAIRSKIADGTVKREDIFYTSKVWCTFHRPELVRVCLEQSLKQLQLDYVDLYLIHFPMAMKPGENYLPKDENGKLIYDAVDICDTWEAMEKCKDAGLAKSIGVSNFNRRQLEKILKKPGLKYKPVCNQVECHPYLNQGKLLDFCRSKDIVLVAYSALGSHREKQWVDQSSPVLLDNPVLGSMAKKYNRTPALIALRYQLQRGVVVLAKSFSEKRIKENMQVFEFQLTSEDMKVLDDLNKNIRYISGSSFKDHPDFPFWDEY", "modifications": "N-terminal His-tag", "notes": "Preparation of the purified recombinant enzyme dated 13/06/09; induction 39 °C, 20 h"}, "B3": {"name": "25/03/09: Preparation of the purified recombinant enzyme dated 25/03/09; induction 37 °C, 15 h (protein, UniProt P70694 1-323, looked up)", "Estradiol 17 …": "MDSKQQTVRLSDGHFIPILGFGTYAPQEVPKSKATEATKIAIDAGFRHIDSASMYQNEKEVGLAIRSKIADGTVKREDIFYTSKVWCTFHRPELVRVCLEQSLKQLQLDYVDLYLIHFPMAMKPGENYLPKDENGKLIYDAVDICDTWEAMEKCKDAGLAKSIGVSNFNRRQLEKILKKPGLKYKPVCNQVECHPYLNQGKLLDFCRSKDIVLVAYSALGSHREKQWVDQSSPVLLDNPVLGSMAKKYNRTPALIALRYQLQRGVVVLAKSFSEKRIKENMQVFEFQLTSEDMKVLDDLNKNIRYISGSSFKDHPDFPFWDEY", "modifications": "N-terminal His-tag", "notes": "Preparation of the purified recombinant enzyme dated 25/03/09; induction 37 °C, 15 h"}, "B4": {"name": "26/09/08: Preparation of the purified recombinant enzyme dated 26/09/08; induction 37 °C, 18 h (protein, UniProt P70694 1-323, looked up)", "Estradiol 17 …": "MDSKQQTVRLSDGHFIPILGFGTYAPQEVPKSKATEATKIAIDAGFRHIDSASMYQNEKEVGLAIRSKIADGTVKREDIFYTSKVWCTFHRPELVRVCLEQSLKQLQLDYVDLYLIHFPMAMKPGENYLPKDENGKLIYDAVDICDTWEAMEKCKDAGLAKSIGVSNFNRRQLEKILKKPGLKYKPVCNQVECHPYLNQGKLLDFCRSKDIVLVAYSALGSHREKQWVDQSSPVLLDNPVLGSMAKKYNRTPALIALRYQLQRGVVVLAKSFSEKRIKENMQVFEFQLTSEDMKVLDDLNKNIRYISGSSFKDHPDFPFWDEY", "modifications": "N-terminal His-tag", "notes": "Preparation of the purified recombinant enzyme dated 26/09/08; induction 37 °C, 18 h"}, "B5": {"name": "22/04/09: Preparation of the purified recombinant enzyme dated 22/04/09; induction 37 °C, 21 h (protein, UniProt P70694 1-323, looked up)", "Estradiol 17 …": "MDSKQQTVRLSDGHFIPILGFGTYAPQEVPKSKATEATKIAIDAGFRHIDSASMYQNEKEVGLAIRSKIADGTVKREDIFYTSKVWCTFHRPELVRVCLEQSLKQLQLDYVDLYLIHFPMAMKPGENYLPKDENGKLIYDAVDICDTWEAMEKCKDAGLAKSIGVSNFNRRQLEKILKKPGLKYKPVCNQVECHPYLNQGKLLDFCRSKDIVLVAYSALGSHREKQWVDQSSPVLLDNPVLGSMAKKYNRTPALIALRYQLQRGVVVLAKSFSEKRIKENMQVFEFQLTSEDMKVLDDLNKNIRYISGSSFKDHPDFPFWDEY", "modifications": "N-terminal His-tag", "notes": "Preparation of the purified recombinant enzyme dated 22/04/09; induction 37 °C, 21 h"}, "B6": {"name": "02/07/09: Preparation of the purified recombinant enzyme dated 02/07/09; induction 28 °C, 24 h (protein, UniProt P70694 1-323, looked up)", "Estradiol 17 …": "MDSKQQTVRLSDGHFIPILGFGTYAPQEVPKSKATEATKIAIDAGFRHIDSASMYQNEKEVGLAIRSKIADGTVKREDIFYTSKVWCTFHRPELVRVCLEQSLKQLQLDYVDLYLIHFPMAMKPGENYLPKDENGKLIYDAVDICDTWEAMEKCKDAGLAKSIGVSNFNRRQLEKILKKPGLKYKPVCNQVECHPYLNQGKLLDFCRSKDIVLVAYSALGSHREKQWVDQSSPVLLDNPVLGSMAKKYNRTPALIALRYQLQRGVVVLAKSFSEKRIKENMQVFEFQLTSEDMKVLDDLNKNIRYISGSSFKDHPDFPFWDEY", "modifications": "N-terminal His-tag", "notes": "Preparation of the purified recombinant enzyme dated 02/07/09; induction 28 °C, 24 h"}, "B7": {"name": "recombinant murine type V 17β-hydroxysteroid dehydrogenase enzyme: Purified recombinant murine type V 17β-hydroxysteroid dehydrogenase with N-terminal His-tag tail, SEQ ID n. 2, expressed in E. coli (protein)", "chain": "MGSSHHHHHHSSGLVPRGSHMDSKQQTVRLSDGHFIPILGFGTYAPQEVPKSKATEATKIAIDAGFRHIDSASMYQNEKEVGLAIRSKIADGTVKREDIFYTSKVWCTFHRPELVRVCLEQSLKQLQLDYVDLYLIHFPMAMKPGENYLPKDENGKLIYDAVDICDTWEAMEKCKDAGLAKSIGVSNFNRRQLEKILKKPGLKYKPVCNQVECHPYLNQGKLLDFCRSKDIVLVAYSALGSHREKQWVDQSSPVLLDNPVLGSMAKKYNRTPALIALRYQLQRGVVVLAKSFSEKRIKENMQVFEFQLTSEDMKVLDDLNKNIRYISGSSFKDHPDFPFWDEY", "modifications": "N-terminal His-tag; modified 17-beta-deidrogenase", "notes": "2, expressed in E. coli"}},
  "key": {"[1]": {"assay": "Solubility of 4-androstene-3,17-dione (saturated solution)", "assay_type": "physicochemical", "experimental": "• 5 mg of 4-androstene-3,17-dione in • 5 mL of buffer solution (phosphate buffer 50 mM; pH 6.5). This was stirred at 40° C. for 15 minutes and the suspended matter was filtered thereby obtaining a saturated solution of 4-androstene-3,17-dione (conc. 50 μg/mL). Solution I (NAD Solution) • 10 mg of NAD in • 1 mL of buffer solution. A clear solution was obtained. Solution L ([…]) • 13 mg of GDH-103 (glucose dehydrogenase) in • 1 mL of buffer solution. A clear solution was obtained.\nAdvantageously, the enzyme of the present invention is capable of carrying out the catalysis also in water-organic solvent mixtures, such as methanol, ethanol, isopropanol in percentages as high as 50%. This mixtures allow increasing the substrate solubility, which is as low as about 50 μg/mL in water."}, "[2]": {"assay": "Activity test of the recombinant murine type V 17β-hydroxysteroid dehydrogenase enzyme (NADPH consumption at 340 nm)", "assay_type": "biochemical", "details": "for U/mg: each enzyme preparation; for U/mg / U/ml: preparation parameters (induction temp., time) differ per date of preparation; for U/ml: eluate of each enzyme preparation", "experimental": "To estimate the specific enzymatic activity of the purified protein, a kinetic study was carried out by means of a spectrophotometer. The conversion of 4-androstene-3,17-dione into testosterone by means of the recombinant murine type V 17β-hydroxysteroid dehydrogenase enzyme involved the equimolar consumption of the NADPH cofactor, which acted as the reducing agent.\nAs the transformation of the 4-androstene-3,17-dione into testosterone is equimolar to the oxidation of NADPH, by quantifying the consumption of the latter over time as a function of the enzyme milligrams used, the activity units can be estimated, which are intended as substrate micromoles converted per minute per protein milligram (U/mg).\nA fresh saturated NADPH solution in phosphate buffer 100 mM at about pH 7 (SOLUTION Q) and a fresh saturated solution of 4-androstene-3,17-dione in phosphate buffer 100 mM at pH 7 (SOLUTION P) were prepared. In a quartz 100 μl cuvette, 1 cm optical path, 96 μl SOLUTION P, 4 μl phosphate buffer 100 mM at pH 7 were added. The blank was measured at 340 nm. The absorbance values at 340 nm were detected every second. In a quartz 100 μl cuvette 96 μl SOLUTION P, 2 μl SOLUTION Q and finally, 2 μl protein elution quantified by Bradford assay were inserted. The solution was blended thoroughly, then the wavelength reading was started at 340 nm and the values thereof were recorded. In a plot, the absorbance values were inserted, which were obtained as a function of time and the curve was interpolated. The highest derivate value within the early seconds of measurement was thus defined.\nWith the values obtained, the plot illustrated in FIG. 5 was drawn, which allows to quantify the NADPH consumption rate at time zero (except the self-oxidation given by the control, consisting of the mixture without enzyme, which must be subtracted) and from the latter the enzyme activity units per protein milligram (U/mg). To calculate the units, the following Formula was used: Unit/mg=|derivate (s^−1)|*60 (sec/min)*1 (cm)/6220 (M^−1Cm^−1)*1000000 (M/M)*[…]/[(mg/mL sol enzyme*0.002 (mL))]=(μmol/min)/mg\nA study to optimize the process for the preparation of the purified recombinant murine enzyme Type V 17β-hydroxysteroid dehydrogenase was carried out. […] It can be seen that the highest activity of the enzyme is reached performing the incubation (protein expression) at a temperature lower than 30° C., particularly preferred is the range between 20° C. and 30° C. The incubation temperature is a key parameter for the preparation of the enzyme."}, "[3]": {"assay": "Stability study of the enzyme (activity as a function of time at room temperature)", "assay_type": "physicochemical", "details": "in the elution solution (SOLUTION G) at room temperature", "experimental": "A study to verify the stability in water of the purified recombinant murine enzyme Type V 17β-hydroxysteroid dehydrogenase of the invention was carried out. […] It can be seen that the enzyme is sufficiently stable to allow industrial biocatalysis as it is still active even after 15 days (Half-life)."}},
  "note": "Where “and” joins values, the source holds several entries; their conditions need not be identical. Equal values may be shown once.",
  "data": [
    {"molecule": "C[C@]12CCC(=O)C=C1CC[C@@H]1[C@@H]2CC[C@]2(C)C(=O)CC[C@@H]12", "note": "[4-androstene-3,17-dione]", "values": [
      {"measurement": "solubility", "setting": "[1]; in water", "value": "~50", "unit": "µg/mL"},
      {"measurement": "concentration of saturated solution", "setting": "[1]; phosphate buffer 50 mM pH 6.5, stirred at 40° C. for 15 minutes, filtered", "value": 50, "unit": "µg/mL"}
    ]},
    {"molecule": "B1", "values": [
      {"measurement": "U/mg", "setting": "[2]", "value": 0.0133, "unit": "U/mg"},
      {"measurement": "U/ml", "setting": "[2]", "value": 0.65, "unit": "U/ml"}
    ]},
    {"molecule": "B2", "values": [
      {"measurement": "U/mg", "setting": "[2]", "value": 0.00393, "unit": "U/mg"},
      {"measurement": "U/ml", "setting": "[2]", "value": 0.0566, "unit": "U/ml"}
    ]},
    {"molecule": "B3", "values": [
      {"measurement": "U/mg", "setting": "[2]", "value": 0.0149, "unit": "U/mg"},
      {"measurement": "U/ml", "setting": "[2]", "value": 0.4955, "unit": "U/ml"}
    ]},
    {"molecule": "B4", "values": [
      {"measurement": "U/mg", "setting": "[2]", "value": 0.00725, "unit": "U/mg"},
      {"measurement": "U/ml", "setting": "[2]", "value": 0.2247, "unit": "U/ml"}
    ]},
    {"molecule": "B5", "values": [
      {"measurement": "U/mg", "setting": "[2]", "value": 0.0057, "unit": "U/mg"},
      {"measurement": "U/ml", "setting": "[2]", "value": 0.1470, "unit": "U/ml"}
    ]},
    {"molecule": "B6", "values": [
      {"measurement": "U/mg", "setting": "[2]", "value": 0.027, "unit": "U/mg"},
      {"measurement": "U/ml", "setting": "[2]", "value": 0.29, "unit": "U/ml"}
    ]},
    {"molecule": "B7", "values": [
      {"measurement": "half-life", "setting": "[3]", "value": "more than 15 days"},
      {"measurement": "specific enzymatic activity (substrate micromoles converted per minute per protein milligram)", "setting": "[2]; two different preparations, NADPH cofactor, phosphate buffer 100 mM pH 7", "value": "0.006 U/mg and 0.007 U/mg"}
    ]}
  ]
}
